US20230242654A1, “REAGENTS FOR EXPANDING CELLS EXPRESSING RECOMBINANT RECEPTORS” (Juno Therapeutics, Inc., priority 2017, published 2023)

How the values were obtained:
[1] = test system: anti-CD19 CAR+ T cells; test: Chronic stimulation assay, 14 days with anti-ID conjugated beads, then K562-CD19 challenge; assay type: cell-based, human; settings: 14 days CAR-specific stimulation versus none; E:T 1:1
Excerpt: Separate compositions of CD4+ and CD8+ cells were isolated from human donors, activated and transduced with a viral vector encoding an anti-CD19 CAR having an scFv derived from FMC63. CD4+ and CD8+ T cells from each donor were then separately harvested, formulated, and cryofrozen. The cryofrozen engineered CD4+ and CD8+ T cells were thawed and formulated at a 1:1 ratio of CD4+ and CD8+ T cells from the same donor to generate a T cell composition containing CAR+ T cells. Anti-ID conjugated beads against the anti-CD19 CAR were incubated with cells at a 1:1 bead:cell ratio for 14 days.
[…] The primary response of T cells from the T cell composition that had not been incubated with the anti-ID conjugated beads also was determined by similar stimulation with antigen-expressing cells (Day 0; “primary”). […] Killing activity was assessed by measuring the loss of viable target cells over 72 hours, as determined by loss of fluorescent signal over time by kinetic fluorescence microscopy (using the INCUCYTE® Live Cell Analysis System, Essen Bioscience). Killing index was determined as the inverse of the area under the curve (AUC) for target fluorescence over time. Intracellular cytokine levels of IL-2 and TNF-alpha also was assessed by flow cytometry in co-cultured T cells after incubation in the presence of Golgi inhibitor. […]

[2] = test system: T cells transduced with anti-CD19 CAR having an scFv derived from FMC63; test: Stimulation of T cells cultured with anti-idiotype antibody-conjugated beads up to 14 days; assay type: cell-based, human
Protocol: The FMC63-derived scFv-specific anti-ID B-1-conjugated beads were incubated with T cells. CD3-purified T cells were isolated by immunoaffinity-based enrichment from leukapheresis samples from healthy donors. Isolated cells were transduced with a viral vector encoding an anti-CD19 CAR having an scFv derived from FMC63. The viral vector construct further encoded a truncated EGFR (EGFRt), which served as a surrogate marker for CAR expression; the EGFRt-coding region was separated from the CAR sequence by a T2A skip sequence. After transductions, cells were expanded in culture and frozen by cryopreservation.
For T cells stimulation studies, thawed CD4+ or CD8+ CAR-expressing cells were separately seeded at approximately 50,000 total cells per well. In some cases, the culture media was additionally supplemented with cytokines as follows: for CD4+ cells, approximately 1200 IU/mL recombinant IL-7, 20 IU/mL recombinant IL-15 and 100 IU/mL recombinant IL-2; for CD8+ cells, approximately 200 IU/mL recombinant IL-2 and 20 IU/mL recombinant IL-15. Anti-ID B-1 conjugated beads were added to cells at a 1:1 or 1:5 cell:bead ratio and incubated up to 14 days with a 50% media exchange every 2-3 days. As a positive control, cells were cultured with anti-CD3/anti-CD28 magnetic beads at a 3:1 cell:bead ratio in the presence or absence of the indicated cytokines.
At various times of culture, CD4+ or CD8+ transduced cells (as detected by anti-EGFR for expression of the surrogate marker) were assessed for expansion, PD-1 expression and viability.

[3] = Stability of antibody conjugated beads (supernatant SDS-PAGE, Coomassie blue); assay type: physicochemical
Protocol: To assess stability of the anti-ID conjugated beads, the beads were pelleted, the supernatant was removed and loaded on a 4-12% Bis-Tris SDS-PAGE gel and the gel was stained with Coomassie blue. As a control for total protein conjugated on the beads, the pelleted beads were boiled in 4× (lithium dodecyl sulfate) LDS sample buffer at about 70° C. for 20 minutes and approximately 12.5 μL or 25 μL boiled supernatant also was run on SDS-PAGE gel and assessed by Coomassie blue. Approximately 2.5 μg or 5.0 μg anti-ID antibody that had not been conjugated to the beads (positive control) or 5 μL 0.1% HSA (negative control) also were assessed by SDS-PAGE and Coomassie blue staining.
Stability of the antibody conjugated beads was assessed by pelleting the antibody-conjugated beads, running the resultant supernatant on an 4-12% Bis-Tris gel, and staining the gel for protein with Coomassie blue. As a control for total protein conjugated on the beads, a 10 μL sample of supernatant from pelleted beads that were boiled in LDS sample buffer also was assessed. […] Bands corresponding to the antibodies were detected in the sample with the supernatant from the boiled sample.
Stability of the antibody conjugated beads was assessed by pelleting the antibody-conjugated beads, running the resultant supernatant on an 4-12% Bis-Tris gel, and staining the gel for protein with Coomassie blue. […]

B1: anti-ID conjugated beads: FMC63-derived scFv-specific anti-idiotype antibody (B-1 in Examples 10-14) covalently coupled to tosyl-activated magnetic beads (conjugate)
heavy: EVQLQQSGPELVKPGASVKMSCKASGYTFTDYYMKWVKQCHGKSLEWIGDINPNNGGTDYNQNFKGKATLTVDKSSSTAYMQLNSLTSEDSAVYYCAREGNNYGSRDAMDYWGQGTSVTVSSAKTTAPSVYPLAPVCGDTTGSSVTLGCLVKGYFPEPVTLTWNSGSLSSGVHTFPAVLQSDLYTLSSSVTVTSSTWPSQSITCNVAHPASSTKVDKKIEPRGPTIKPCPPCKCPAPNLLGGPSVFIFPPKIKDVLMISLSPIVTCVVVDVSEDDPDVQISWFVNNVEVHTAQTQTHREDYNSTLRVVSALPIQHQDWMSGKEFKCKVNNKDLPAPIERTISKPKGSVRAPQVYVLPPPEEEMTKKQVTLTCMVTDFMPEDIYVEWTNNGKTELNYKNTEPVLDSDGSYFMYSKLRVEKKNWVERNSYSCSVVHEGLHNHHTTKSFSRTPGK
light: QIVLTQSPALMSASPGEKVTMTCSASSGVIYMYWYQQKPRSSPKPWIYLTSNLASGVPARFSGSGSGTSYSLTISSMEAEDAATYYCQQWSSNPLTFGAGTKLELKRADAAPTVSIFPPSSEQLTSGGASVVCFLNNFYPKDINVKWKIDGSERQNGVLNSWTDQDSKDSTYSMSSTLTLTKDEYERHNSYTCEATHKTSTSPIVKSFNRNEC
Intracellular cytokine levels of IL-2 and TNF-alpha [1]: also were reduced | extent of expansion of CD4+ and CD8+ T cells ([2]; 1:1 or 1:5 cell:bead, versus control anti-CD3/anti-CD28 magnetic beads): The extent of expansion was greater | percent viability of CD4+ and CD8+ T cells ([2]; cultured in the presence of cytokines): remained consistently high | surface expression of PD-1 on the CD4+ cell subset ([2]; days 3, 7, 10 and 14): substantially lower or undetectable | stability of the conjugation [3]: the conjugation was stable
